# Measurements published in PMC6591006.
# Biological target: Monoclonal anti-HIV-1 Env SF12 (IgG)
# Experiment: ELISA
# Settings: highest antibody concentration of the titration (last point of the curve, between 1 and 10 µg/ml); parent: est. 3.3; read off a plot
substance,measurement,value
YU2 gp140 foldon trimer (wild type) A281T; D368K,response,2.7 OD
